Assay results published in the supplement of paper PMC9170038.

System: MS2 coat protein
Assay: apparent KD of MS2 coat protein; designed switch direction (-1 OFF switch, 1 ON switch): -1; higher = weaker reporter binding
Outline: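 Designed RNA switches with common flanks were transcribed on Illumina chips by stalled E. coli RNA polymerase and titrated with SNAP-549-labelled MS2 coat protein, from 0.7 or 1.5 nM doubling to 3 µM, in Tris-HCl pH 7.5 buffer with KCl, MgCl2, BSA, DTT, tRNA and Tween-20. Steps lasted 0.8–1.5 h (lowest) to 10–20 min (highest). Titrations ran without input, with 200 uM small-molecule ligand, or with an oligonucleotide input. Normalised cluster fluorescence was curve-fitted, and apparent KD is the per-design median over clusters.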

[1] = input ligand: microRNA oligo, concentration not stated
[2] = Eterna round: R95, input ligand: microRNA oligo, concentration not stated

Row | Sequence | apparent KD of MS2 coat protein (input ligand: FMN 200 uM) | apparent KD of MS2 coat protein (input ligand: none) | apparent KD of MS2 coat protein [1] | apparent KD of MS2 coat protein (Eterna round: R95, input ligand: FMN 200 uM) | apparent KD of MS2 coat protein [2] | apparent KD of MS2 coat protein (Eterna round: R95, input ligand: none)
1 | UCUGGUCGAGGAUAUACAUUCGUGCUUCGGCACGUAAGGUCACAUGAGGAUCACCCAUGUAGAAGGCGACCAGA [E2/7-A3] (Eterna round: R97, puzzle: Exclusion 2) | 181 nM | 38.4 nM | – | – | – | –
2 | UCUGUUGAAGGAUAUGCGUAACGAGUUACGGCUCGAGGUCUACAUGAGGAUCACCCAUGUAGAAGGUCAUCAGA [EX2 #70] (Eterna round: R97, puzzle: Exclusion 2) | 15.8 nM | 15.1 nM | – | – | – | –
3 | UCUGUUUUGCGAGGAUAUCGACCAUUCCUCUUAACAUGAGGAUCACCCAUGUGCUAAACCUACAACGAGAAGGCGCUCAUACUC [JR_ExcNG2_Sub067] (Eterna round: R96, puzzle: Exclusion NG 2) | 60.8 nM | 51.9 nM | 50 nM | – | – | –
4 | UCUUAGUCAGGAUAUACAUGAGGAUCACCCAUGUAAAAUUUUAAUUUAAUUUUAAGGUGUAGAAGGGACCACCC [Ex3 #17] (Eterna round: R97, puzzle: Exclusion 3) | 33.2 nM | 37.5 nM | – | – | – | –
5 | UCUUAUUGAGGAUAUACAUUAAUUUACAUGAGGAUCACCCAUGUUCUUCAAUGUAUAUAUGUAGAAGGCAGAAGAU [Mat - Exclusion 5 - JL Mod - D29] (Eterna round: R97, puzzle: Exclusion 5) | 41.4 nM | 18.1 nM | – | – | – | –
6 | UCUUAUUGCAAGGAUAUGCAAAUUAUUAUUAAUGCAGAAGGUGCUACAUGAGGAUCACCCAUGUUUCCGGGAAA [JR_E6_Sub041] (puzzle: Exclusion 6) | – | – | – | 66.6 nM | 31.6 nM | 31.5 nM
7 | UCUUAUUGCAAGGAUAUGCAAAUUAUUUUUUAAGCAGAAGGUGCAACAUGAGGAUCACCCAUGUUUCCGGGAAA [JR_E6_Sub039] (puzzle: Exclusion 6) | – | – | – | – | 23.9 nM | –
8 | UCUUGUUGUCCGUGAGAAGACAUGAGGAUCACCCAUGUUAGUUUGAUUAUGAUGUGUAAGUUUGUUGUUCGUUUUAU [JR_STOV1_v2_Sub072] (Eterna round: R97, puzzle: Sensor, turn-off variant 1) | 53.1 nM | 63.1 nM | – | – | – | –
9 | UCUUUACAUGAGGAUCACCCAUGUGAGGAUAUGGUUUCGCUGGCCGUAGCCAGUGGAACCAGAAGGCGCAUGAU [Mat - Exclusion 1 - JL Mod - D9] (Eterna round: R97, puzzle: Exclusion 1) | 51.4 nM | 27.9 nM | – | – | – | –
10 | UGAAGGCGAGGAUAUACUGUAUGGGACAUGAGGAUCACCCAUGUUCUGUGUGUACCCGUCGUAGAAGGCGCGAAGA [EX5 C.9] (Eterna round: R97, puzzle: Exclusion 5) | 16 nM | 14.5 nM | – | – | – | –
11 | UGAAGUAGAGGAUAUACGUGGAAAUAGAUUCAUGUAUAUCUACAUGAGGAUCACCCAUGUAGAAGGCUAUAGAU [JR_Ex2_Sub073] (Eterna round: R97, puzzle: Exclusion 2) | 22.8 nM | 22.4 nM | – | – | – | –
12 | UGAAGUUGUGUGAGGAUAUCGGGCCCGAAAGGGCCCGAGAAGGCACAUGAGGAUCACCCAUGUAAGCGGCUUCG [-37.8, -35.7 kcal, A 26%, 0-3] (Eterna round: R97, puzzle: Brourd's mod of Exclusion 4) | 15.8 nM | 19.6 nM | – | – | – | –
13 | UGACGGAUAGGAUAUGUAUCGCCUGACAUGAGGAUCACCCAUGUGGUUCAUAAGUUGCCAACAGAAGGAUCAGAAA [Eternabot (L1) Solution 60] (Eterna round: R97, puzzle: Exclusion 5) | 129 nM | 180 nM | – | – | – | –
14 | UGACUUCAUAUCACAUGAGGAUCACCCAUGUUAUUCAUCGCGUAGGAUAUCGAGGUUUAUUAUUACGAGAAGGACGUAUUGAUA [JR_ExcNG3_Sub074] (Eterna round: R96, puzzle: Exclusion NG 3) | 61.1 nM | 40.7 nM | 34.5 nM | – | – | –
